{
  "source": "paper PMC9040721",
  "key": {"[1]": {"molecular_target": "recombinant full-length TRP120, His-tagged (rTRP120-FL) (E. chaffeensis) (UniProt Q2GI62)", "assay": "SPR; Biacore T100, NTA sensor chip; His-tagged TRP120-FL, TRP120-TR or TRX (0.1 uM) immobilised; Fc-tagged Notch-1 LBR as analyte, 2-fold dilutions 800 nM to 25 nM; 25 C; 100 mM sodium phosphate pH 7.4, 400 mM NaCl, 40 uM EDTA; 1:1 Langmuir model"}, "[2]": {"molecular_target": "recombinant TRP120 tandem repeat domain, His-tagged (rTRP120-TR) (E. chaffeensis) (UniProt Q2GI62)", "assay": "SPR; Biacore T100, NTA sensor chip; His-tagged TRP120-FL, TRP120-TR or TRX (0.1 uM) immobilised; Fc-tagged Notch-1 LBR as analyte, 2-fold dilutions 800 nM to 25 nM; 25 C; 100 mM sodium phosphate pH 7.4, 400 mM NaCl, 40 uM EDTA; 1:1 Langmuir model"}},
  "note": "pKd: −log10 of the molar value.",
  "data": [
    {"substance": "human rNotch-1 Fc Chimera Protein, CF (R&D Systems); Fc-tagged Notch-1 ligand-binding region (LBR) (from UniProt P46531 19-2555) (Fc fusion)", "values": [
      {"measurement": "pKd", "setting": "[1]", "value": 7.00},
      {"measurement": "pKd", "setting": "[2]", "value": 6.92}
    ]}
  ]
}
